Test results from patent publication US20160355553A1 (Janssen / Centocor, published 2016).
Numbering of substitutions follows the chain as printed.

What was measured:
[1] = biological target: T1, Mal2506-04 B-m2-CL1+5-GCN4a (influenza B virus, UniProt P03461 6-574); assay: FACS, transfected cells
T1 chain: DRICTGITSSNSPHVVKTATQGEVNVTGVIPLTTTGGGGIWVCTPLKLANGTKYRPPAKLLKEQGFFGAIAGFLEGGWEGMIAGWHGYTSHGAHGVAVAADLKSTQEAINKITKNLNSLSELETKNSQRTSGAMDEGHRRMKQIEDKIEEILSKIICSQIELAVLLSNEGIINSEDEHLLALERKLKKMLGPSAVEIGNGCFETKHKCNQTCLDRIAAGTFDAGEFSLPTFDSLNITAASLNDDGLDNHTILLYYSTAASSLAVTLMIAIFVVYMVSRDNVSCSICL

FL4-06 B-m2-CL1+5-GCN4a = biological target: T2, FL4-06 B-m2-CL1+5-GCN4a (influenza B virus, UniProt P03461 6-574); assay: FACS, transfected cells
T2 chain: T1 chain with D222N, I268L, V272I

FL4-06 B-m2 = FL4-06 B-m2 (influenza B virus, UniProt P03461 6-574); assay: FACS, transfected cells
[2] = biological target: mini2 cluster11 (A/Brisbane/59/2007) (influenza A virus H1N1, UniProt A8C8J4 18-565); assay: FACS on HEK293F
[3] = biological target: mini4 cluster11+5 (A/Brisbane/59/2007) (influenza A virus H1N1, UniProt A8C8J4 18-565); assay: FACS on HEK293F
[4] = biological target: mini2 cluster11+5 (A/Brisbane/59/2007) (influenza A virus H1N1, UniProt A8C8J4 18-565); assay: FACS on HEK293F
[5] = biological target: mini4 cluster11 (A/Brisbane/59/2007) (influenza A virus H1N1, UniProt A8C8J4 18-565); assay: FACS on HEK293F
[6] = biological target: mini1 cluster11 (A/Brisbane/59/2007) (influenza A virus H1N1, UniProt A8C8J4 18-565); assay: FACS on HEK293F
[7] = biological target: mini3 cluster11 (A/Brisbane/59/2007) (influenza A virus H1N1, UniProt A8C8J4 18-565); assay: FACS on HEK293F
[8] = biological target: mini1 cluster11+5 (A/Brisbane/59/2007) (influenza A virus H1N1, UniProt A8C8J4 18-565); assay: FACS on HEK293F
[9] = biological target: mini3 cluster11+5 (A/Brisbane/59/2007) (influenza A virus H1N1, UniProt A8C8J4 18-565); assay: FACS on HEK293F
[10] = biological target: H1 Full-length (A/Brisbane/59/2007) (influenza A virus H1N1, UniProt B4URD6 18-565); assay: FACS on HEK293F
[11] = biological target: H1 FL HA A/Puerto Rico/8/1934 (influenza A virus H1N1, UniProt P03452 18-565); assay: FACS on HEK293F
[12] = biological target: miniHA cluster1+2+3 (A/Brisbane/59/2007) (influenza A virus H1N1, UniProt A8C8J4 18-565); assay: FACS on HEK293F
[13] = biological target: miniHA cluster1 (A/Brisbane/59/2007) (influenza A virus H1N1, UniProt A8C8J4 18-565); assay: FACS on HEK293F
[14] = biological target: miniHA cluster1+3 (A/Brisbane/59/2007) (influenza A virus H1N1, UniProt A8C8J4 18-565); assay: FACS on HEK293F
[15] = biological target: miniHA cluster1+2+3+4 (A/Brisbane/59/2007) (influenza A virus H1N1, UniProt A8C8J4 18-565); assay: FACS on HEK293F
[16] = biological target: miniHA cluster1+2 (A/Brisbane/59/2007) (influenza A virus H1N1, UniProt A8C8J4 18-565); assay: FACS on HEK293F
H1-PR8-dH1 = H1-PR8-dH1 (influenza A virus H1N1, UniProt P03452 18-565); assay: FACS on HEK293F
[17] = biological target: HK68 H3m2-cl9+10+11+13-GCN4 (influenza A virus H3N2, UniProt Q91MA7 17-566); assay: FACS on HEK293F [D00014 FIG. 10B]
[18] = biological target: HK68 H3m2-cl9+10+11+12-GCN4 (influenza A virus H3N2, UniProt Q91MA7 17-566); assay: FACS on HEK293F [D00014 FIG. 10B]
HK68 H3m2-cl9+10+12 = HK68 H3m2-cl9+10+12 (influenza A virus H3N2, UniProt Q91MA7 17-566); assay: FACS on HEK293F [D00014 FIG. 10B]
[19] = biological target: HK68 H3m2-cl9+10+11+13-tri (influenza A virus H3N2, UniProt Q91MA7 17-566); assay: FACS on HEK293F [D00014 FIG. 10B]

Measured: binding result

B1: CR9114 (antibody, V domains shown)
VH: QVQLVQSGAEVKKPGSSVKVSCKSSGGTSNNYAISWVRQAPGQGLDWMGGISPIFGSTAYAQKFQGRVTISADIFSNTAYMELNSLTSEDTAVYFCARHGNYYYYSGMDVWGQGTTVTVSS
VL: SYVLTQPPAVSGTPGQRVTISCSGSDSNIGRRSVNWYQQFPGTAPKLLIYSNDQRPSVVPDRFSGSKSGTSASLAISGLQSEDEAEYYCAAWDDSLKGAVFGGGTQLTVL
no binding: [1] | FL4-06 B-m2-CL1+5-GCN4a | FL4-06 B-m2

B2: CR8057 (antibody, V domains shown)
VH: EVQLVESGGGLVQPGGSLRLSCAASGFTDSVIFMSWVRQAPGKGLECVSIIYIDDSTYYADSVKGRFTISRHNSMGTVFLEMNSLRPDDTAVYYCATESGDFGDQTGPYHYYAMDV
VL: QSALTQPASVSGSPGQSITISCTGSSGDIGGYNAVSWYQHHPGKAPKLMIYEVTSRPSGVSDRFSASRSGDTASLTVSGLQAEDEAHYYCCSFADSNILI
no binding (tested: 5 ug/ml): [2] | [3] | [4] | [5] | [6] | [7] | [8] | [9] | [10] | [11] | [12] | [13] | [14] | [15] | [16] | H1-PR8-dH1 | [17] | [18] | HK68 H3m2-cl9+10+12 | [19]
